Results on 14 molecules are retold here after patent US20220380478A1 (published 2022).

B1: TNX02 anti-CD154 monoclonal antibody (antibody)
heavy: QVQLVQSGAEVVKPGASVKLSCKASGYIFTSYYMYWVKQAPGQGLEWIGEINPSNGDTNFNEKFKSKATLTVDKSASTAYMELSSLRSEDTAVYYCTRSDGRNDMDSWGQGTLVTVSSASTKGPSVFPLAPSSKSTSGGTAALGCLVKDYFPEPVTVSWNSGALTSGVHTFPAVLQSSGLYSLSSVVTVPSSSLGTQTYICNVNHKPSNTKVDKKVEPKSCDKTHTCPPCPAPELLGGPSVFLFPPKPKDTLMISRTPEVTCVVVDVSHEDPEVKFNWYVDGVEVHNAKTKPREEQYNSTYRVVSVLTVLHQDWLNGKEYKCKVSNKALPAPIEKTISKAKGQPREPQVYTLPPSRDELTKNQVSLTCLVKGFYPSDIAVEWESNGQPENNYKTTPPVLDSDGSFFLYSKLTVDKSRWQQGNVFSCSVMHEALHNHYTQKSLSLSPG
light: DIVLTQSPATLSVSPGERATISCRASQRVSSSTYSYMHWYQQKPGQPPKLLIKYASNLESGVPARFSGSGSGTDFTLTISSVEPEDFATYYCQHSWEIPPTFGGGTKLEIKRTVAAPSVFIFPPSDEQLKSGTASVVCLLNNFYPREAKVQWKVDNALQSGNSQESVTEQDSKDSTYSLSSTLTLSKADYEKHKVYACEVTHQGLSSPVTKSFNRGEC
B2: TNX04 anti-CD154 monoclonal antibody (antibody)
heavy: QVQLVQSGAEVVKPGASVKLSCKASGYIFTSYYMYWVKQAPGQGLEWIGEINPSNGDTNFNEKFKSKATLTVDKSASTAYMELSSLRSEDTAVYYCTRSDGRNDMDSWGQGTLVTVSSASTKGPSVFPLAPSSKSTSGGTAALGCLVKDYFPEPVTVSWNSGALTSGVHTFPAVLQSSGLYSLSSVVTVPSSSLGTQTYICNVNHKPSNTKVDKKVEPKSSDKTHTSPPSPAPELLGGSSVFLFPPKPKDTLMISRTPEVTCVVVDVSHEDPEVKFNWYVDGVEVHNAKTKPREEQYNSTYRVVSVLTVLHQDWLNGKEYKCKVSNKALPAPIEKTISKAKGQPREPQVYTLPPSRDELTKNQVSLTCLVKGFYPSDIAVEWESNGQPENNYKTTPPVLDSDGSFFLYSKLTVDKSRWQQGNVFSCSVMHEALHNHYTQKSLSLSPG
light: B1 light
B3: TNX01 anti-CD154 monoclonal antibody (antibody)
heavy: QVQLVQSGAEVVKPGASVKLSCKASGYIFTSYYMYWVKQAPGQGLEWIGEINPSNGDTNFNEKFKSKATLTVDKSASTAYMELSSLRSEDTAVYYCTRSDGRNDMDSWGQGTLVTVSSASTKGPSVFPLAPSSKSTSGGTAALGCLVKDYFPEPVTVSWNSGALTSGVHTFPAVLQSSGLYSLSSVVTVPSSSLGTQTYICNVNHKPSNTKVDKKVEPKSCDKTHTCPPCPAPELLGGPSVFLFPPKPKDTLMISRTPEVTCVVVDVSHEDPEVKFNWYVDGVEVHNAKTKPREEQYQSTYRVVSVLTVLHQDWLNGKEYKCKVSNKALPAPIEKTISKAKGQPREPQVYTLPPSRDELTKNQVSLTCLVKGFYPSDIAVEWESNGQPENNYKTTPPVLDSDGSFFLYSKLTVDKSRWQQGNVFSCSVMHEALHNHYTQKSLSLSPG
light: B1 light
B4: TNX03 anti-CD154 monoclonal antibody (antibody)
heavy: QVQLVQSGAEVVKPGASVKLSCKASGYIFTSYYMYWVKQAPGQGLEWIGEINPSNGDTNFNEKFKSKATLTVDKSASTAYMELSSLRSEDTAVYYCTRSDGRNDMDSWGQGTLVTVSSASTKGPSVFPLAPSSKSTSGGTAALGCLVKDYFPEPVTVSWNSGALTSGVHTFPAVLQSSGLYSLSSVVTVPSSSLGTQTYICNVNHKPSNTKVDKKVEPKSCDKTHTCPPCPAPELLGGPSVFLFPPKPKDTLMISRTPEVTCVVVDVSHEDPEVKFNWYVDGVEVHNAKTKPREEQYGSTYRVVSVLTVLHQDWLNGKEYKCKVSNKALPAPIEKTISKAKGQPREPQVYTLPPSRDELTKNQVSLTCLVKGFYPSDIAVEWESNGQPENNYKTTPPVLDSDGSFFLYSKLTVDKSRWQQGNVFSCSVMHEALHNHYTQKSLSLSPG
light: B1 light
B5: TNX05 anti-CD154 monoclonal antibody (antibody)
heavy: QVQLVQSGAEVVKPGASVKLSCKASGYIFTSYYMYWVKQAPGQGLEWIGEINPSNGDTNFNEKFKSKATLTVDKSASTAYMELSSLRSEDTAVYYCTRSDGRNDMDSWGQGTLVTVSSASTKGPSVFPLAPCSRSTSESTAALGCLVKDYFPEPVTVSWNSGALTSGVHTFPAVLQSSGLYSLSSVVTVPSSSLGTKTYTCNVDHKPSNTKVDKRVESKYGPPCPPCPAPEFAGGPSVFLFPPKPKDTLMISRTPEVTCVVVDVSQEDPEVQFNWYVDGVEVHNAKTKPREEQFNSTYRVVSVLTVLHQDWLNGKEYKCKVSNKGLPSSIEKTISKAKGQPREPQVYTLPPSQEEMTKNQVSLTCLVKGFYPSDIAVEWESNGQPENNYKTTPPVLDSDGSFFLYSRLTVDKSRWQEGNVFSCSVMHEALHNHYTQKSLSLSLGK
light: B1 light
B6: D1.1 (ligand)
chain: MIETYNQTSPRSAATGLPISMKIFMYLLTVFLITQMIGSALFAVYLHRRLDKIEDERNLHEDFVFMKTIQRCNTGERSLSLLNCEEIKSQFEGFVKDIMLNKEETKKENSFEMQKGDQNPQIAAHVISEASSKTTSVLQWAEKGYYTMSNNLVTLENGKQLTVKRQGLYYIYAQVTFCSNREASSQAPFIASLCLKSPGRFERILLRAANTHSSAKPCGQQSIHLGGVFELQPGASVFVNVTDPSQVSHGTGFTSFGLLKL
B7: TNX13 anti-CD154 monoclonal antibody (antibody)
heavy: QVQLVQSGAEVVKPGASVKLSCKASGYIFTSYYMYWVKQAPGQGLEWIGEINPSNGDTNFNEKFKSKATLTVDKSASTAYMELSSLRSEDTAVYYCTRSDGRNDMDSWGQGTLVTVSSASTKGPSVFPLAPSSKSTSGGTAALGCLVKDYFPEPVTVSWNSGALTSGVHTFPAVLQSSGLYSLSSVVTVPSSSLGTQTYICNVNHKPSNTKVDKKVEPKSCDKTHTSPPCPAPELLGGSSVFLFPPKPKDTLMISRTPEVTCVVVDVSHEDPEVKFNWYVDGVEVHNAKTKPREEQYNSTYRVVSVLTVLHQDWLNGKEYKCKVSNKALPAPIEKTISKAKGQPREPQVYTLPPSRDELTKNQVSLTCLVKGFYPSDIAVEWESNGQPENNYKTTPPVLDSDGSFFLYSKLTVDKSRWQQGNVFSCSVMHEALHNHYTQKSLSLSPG
light: B1 light
B8: TNX08 anti-CD154 monoclonal antibody (antibody)
heavy: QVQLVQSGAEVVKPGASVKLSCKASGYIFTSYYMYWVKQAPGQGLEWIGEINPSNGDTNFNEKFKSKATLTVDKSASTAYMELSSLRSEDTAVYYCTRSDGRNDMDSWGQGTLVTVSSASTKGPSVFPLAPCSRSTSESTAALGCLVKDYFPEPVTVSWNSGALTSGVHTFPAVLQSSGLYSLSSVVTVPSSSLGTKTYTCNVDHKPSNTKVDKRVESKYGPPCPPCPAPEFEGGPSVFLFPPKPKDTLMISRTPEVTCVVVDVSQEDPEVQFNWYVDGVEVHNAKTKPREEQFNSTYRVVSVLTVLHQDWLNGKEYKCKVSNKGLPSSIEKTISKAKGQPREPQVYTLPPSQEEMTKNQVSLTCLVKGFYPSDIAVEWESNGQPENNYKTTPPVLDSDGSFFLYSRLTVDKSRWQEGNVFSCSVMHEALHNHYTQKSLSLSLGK
light: B1 light
B9: TNX10 anti-CD154 monoclonal antibody (antibody)
heavy: not shown
light: B1 light
B10: TNX07 anti-CD154 monoclonal antibody (antibody)
heavy: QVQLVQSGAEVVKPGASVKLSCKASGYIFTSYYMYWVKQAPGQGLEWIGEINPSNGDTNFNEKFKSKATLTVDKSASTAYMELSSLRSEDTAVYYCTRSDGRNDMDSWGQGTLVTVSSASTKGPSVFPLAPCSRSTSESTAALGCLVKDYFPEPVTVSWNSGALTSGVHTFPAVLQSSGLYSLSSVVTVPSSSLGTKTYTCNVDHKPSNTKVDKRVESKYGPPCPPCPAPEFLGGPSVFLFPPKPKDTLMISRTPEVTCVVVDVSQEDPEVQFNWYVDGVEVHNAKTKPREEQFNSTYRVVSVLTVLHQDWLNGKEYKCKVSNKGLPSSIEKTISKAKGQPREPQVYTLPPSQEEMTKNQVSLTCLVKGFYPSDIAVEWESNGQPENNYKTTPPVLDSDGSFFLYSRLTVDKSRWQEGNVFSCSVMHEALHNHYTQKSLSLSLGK
light: B1 light
B11: TNX06 anti-CD154 monoclonal antibody (antibody)
heavy: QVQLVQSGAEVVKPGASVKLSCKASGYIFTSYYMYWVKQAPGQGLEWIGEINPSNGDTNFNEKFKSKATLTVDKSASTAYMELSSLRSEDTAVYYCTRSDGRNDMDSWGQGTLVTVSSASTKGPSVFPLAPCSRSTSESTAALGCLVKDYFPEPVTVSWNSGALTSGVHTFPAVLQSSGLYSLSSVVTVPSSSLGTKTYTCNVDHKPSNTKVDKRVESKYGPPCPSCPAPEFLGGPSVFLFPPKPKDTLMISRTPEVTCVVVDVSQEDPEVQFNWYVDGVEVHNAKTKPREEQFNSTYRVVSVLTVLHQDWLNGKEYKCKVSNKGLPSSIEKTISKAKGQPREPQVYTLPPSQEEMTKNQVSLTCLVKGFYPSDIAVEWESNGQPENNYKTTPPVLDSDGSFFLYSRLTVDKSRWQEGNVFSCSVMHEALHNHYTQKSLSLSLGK
light: B1 light
B12: TNX11 anti-CD154 monoclonal antibody (antibody)
heavy: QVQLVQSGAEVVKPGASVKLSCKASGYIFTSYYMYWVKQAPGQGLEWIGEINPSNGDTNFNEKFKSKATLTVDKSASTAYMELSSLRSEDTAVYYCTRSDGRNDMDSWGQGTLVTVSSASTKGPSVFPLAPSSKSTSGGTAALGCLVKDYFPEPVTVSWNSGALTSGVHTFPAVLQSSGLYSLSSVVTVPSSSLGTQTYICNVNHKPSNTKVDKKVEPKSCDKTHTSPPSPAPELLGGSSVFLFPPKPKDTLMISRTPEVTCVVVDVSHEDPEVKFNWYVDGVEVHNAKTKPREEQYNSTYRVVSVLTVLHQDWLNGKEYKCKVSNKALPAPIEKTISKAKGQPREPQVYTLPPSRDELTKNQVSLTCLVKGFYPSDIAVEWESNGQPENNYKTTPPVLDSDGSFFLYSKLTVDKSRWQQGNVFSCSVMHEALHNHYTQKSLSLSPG
light: B1 light
B13: TNX09 anti-CD154 monoclonal antibody (antibody)
heavy: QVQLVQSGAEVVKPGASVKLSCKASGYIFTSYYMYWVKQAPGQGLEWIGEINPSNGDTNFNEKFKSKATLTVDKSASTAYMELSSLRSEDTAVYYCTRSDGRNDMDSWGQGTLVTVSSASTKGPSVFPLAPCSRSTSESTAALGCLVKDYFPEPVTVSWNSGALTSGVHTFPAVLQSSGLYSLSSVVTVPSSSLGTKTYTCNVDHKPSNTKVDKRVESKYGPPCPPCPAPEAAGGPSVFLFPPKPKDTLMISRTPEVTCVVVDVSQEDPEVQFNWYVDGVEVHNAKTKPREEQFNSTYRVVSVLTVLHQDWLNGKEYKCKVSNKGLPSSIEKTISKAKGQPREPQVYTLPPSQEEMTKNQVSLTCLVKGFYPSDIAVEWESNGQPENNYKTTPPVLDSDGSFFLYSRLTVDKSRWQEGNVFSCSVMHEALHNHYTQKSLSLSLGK
light: B1 light
B14: TNX12 anti-CD154 monoclonal antibody (antibody)
heavy: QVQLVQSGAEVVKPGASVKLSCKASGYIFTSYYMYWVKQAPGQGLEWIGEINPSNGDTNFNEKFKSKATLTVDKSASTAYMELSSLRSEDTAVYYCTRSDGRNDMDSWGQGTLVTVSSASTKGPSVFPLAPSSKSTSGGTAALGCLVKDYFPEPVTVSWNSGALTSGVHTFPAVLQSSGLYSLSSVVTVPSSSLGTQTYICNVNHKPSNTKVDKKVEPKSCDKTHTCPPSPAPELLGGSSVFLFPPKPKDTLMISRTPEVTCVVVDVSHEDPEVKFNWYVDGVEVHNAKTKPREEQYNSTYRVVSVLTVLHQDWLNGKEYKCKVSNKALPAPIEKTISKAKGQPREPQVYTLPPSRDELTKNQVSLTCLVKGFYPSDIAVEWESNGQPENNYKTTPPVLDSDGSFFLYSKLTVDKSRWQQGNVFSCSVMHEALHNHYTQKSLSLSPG
light: B1 light

T5 sequence (P08637 17-208 F176V): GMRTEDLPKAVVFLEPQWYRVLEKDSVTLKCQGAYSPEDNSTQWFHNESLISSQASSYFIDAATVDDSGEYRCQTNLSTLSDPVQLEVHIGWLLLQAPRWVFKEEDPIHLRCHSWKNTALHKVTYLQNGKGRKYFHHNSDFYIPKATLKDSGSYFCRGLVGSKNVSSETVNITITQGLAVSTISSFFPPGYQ

The first assay deals with T1, FcγRIA (CD64) (UniProt P12314 16-292).
T1 chain: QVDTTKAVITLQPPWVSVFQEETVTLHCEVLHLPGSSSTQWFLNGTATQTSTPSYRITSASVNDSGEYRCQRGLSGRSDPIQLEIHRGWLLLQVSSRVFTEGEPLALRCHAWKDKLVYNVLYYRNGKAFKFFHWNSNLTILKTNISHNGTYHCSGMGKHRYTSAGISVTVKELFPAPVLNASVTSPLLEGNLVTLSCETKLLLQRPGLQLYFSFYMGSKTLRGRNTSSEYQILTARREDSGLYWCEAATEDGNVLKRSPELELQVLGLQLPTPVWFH
Description: SPR; avid.
For the molecule B1, the Kd came to 0.0288 nM.

B2 yielded a Kd of 0.309 nM.

Molecule B3 yielded a Kd of 56 nM.

For the molecule B4, the Kd is 89.8 nM.

B5 gave a Kd of 8.8 nM.

The next assay concerns the target Mouse_anti-CD40L. Put plainly: flow cytometry. A general note: In flow cytometry, cells or beads pass a laser one at a time.
For the molecule B6, the Kd turned out to be 0.000339 µM.

The next assay deals with T1, FcγRIA (CD64). Description: SPR; avid. This is another data set of the same source. For orientation: In SPR one partner is held on a chip, and binding of the other changes the refractive index at the surface.
B2 displayed a Kd of 0.00033 µM.

The molecule B3 showed a Kd of 0.0765 µM.

In turn, B4 displayed a Kd of 0.092 µM.

The molecule B5 displayed a Kd of 0.0087 µM.

A further assay concerns the target T2, CD32aH (FcγRIIaH) (UniProt P12318 34-217).
T2 chain: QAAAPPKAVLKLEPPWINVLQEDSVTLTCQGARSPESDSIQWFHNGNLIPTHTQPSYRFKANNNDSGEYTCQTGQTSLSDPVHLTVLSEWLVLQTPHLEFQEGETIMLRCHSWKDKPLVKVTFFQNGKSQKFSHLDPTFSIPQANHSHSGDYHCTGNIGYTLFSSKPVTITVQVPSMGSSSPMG
Description: SPR.
Molecule B1 came in with a Kd of 0.525 µM.

Turning to B7, the Kd amounted to 8.95 µM.

The molecule B8 came in with a Kd of 9.03 µM.

For the molecule B9, the Kd was over 12 µM.

For B10, the Kd amounted to 3.01 µM.

In turn, B11 had a Kd of 3.19 µM.

B12 yielded a Kd of over 12 µM.

For the molecule B13, the Kd was over 12 µM.

The molecule B14 showed a Kd of over 12 µM.

A further assay deals with T3, CD32bF (FcγRIIbF) (UniProt P31994 43-217).
T3 chain: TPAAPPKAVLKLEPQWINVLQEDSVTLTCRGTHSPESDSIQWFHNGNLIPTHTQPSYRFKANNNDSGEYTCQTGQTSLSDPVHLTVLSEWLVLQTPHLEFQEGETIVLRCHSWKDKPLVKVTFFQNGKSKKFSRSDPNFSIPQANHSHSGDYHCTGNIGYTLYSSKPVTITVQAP
Description: SPR.
Molecule B1 registered a Kd of 1.03 µM.

As to B7, the Kd worked out at 5.84 µM.

With B8, the Kd came out at 4.2 µM.

In the case of B9, the Kd is over 12 µM.

B10 returned a Kd of 2.45 µM.

Turning to B11, the Kd is 2.53 µM.

Consider B12, for which the Kd is over 12 µM.

As for B13, the Kd is over 12 µM.

As for B14, the Kd worked out at 8.41 µM.

A further assay deals with T4, CD16aF (FcγRIIIaF) (UniProt P08637 17-208). Put plainly: SPR.
T4 sequence (P08637 17-208): as the sequence (P08637 17-208 F176V) above, with V160F counted along it
As for B1, the Kd came to 1.81 µM.

B7 yielded a Kd of over 5 µM.

Regarding B8, the Kd was 4.44 µM.

As to B9, the Kd was over 5 µM.

The molecule B10 displayed a Kd of 3.66 µM.

B11 yielded a Kd of 3.17 µM.

B12 registered a Kd of over 5 µM.

The molecule B13 registered a Kd of over 5 µM.

With B14, the Kd was over 5 µM.

The next assay has as its target T5, CD16aV (FcγRIIIaV) (UniProt P08637 17-208). Description: SPR.
B1 had a Kd of 0.333 µM.

In the case of B7, the Kd was over 5 µM.

B8 registered a Kd of 3.56 µM.

Regarding B9, the Kd was 4.63 µM.

As to B10, the Kd was 3.01 µM.

Take B11: the Kd was determined as 2.09 µM.

Molecule B12 registered a Kd of over 5 µM.

In turn, B13 yielded a Kd of 3.77 µM.

B14 came in with a Kd of over 5 µM.

The next assay addresses Mouse anti hCD40L. Put plainly: FACS cell binding; apparent Kd.
Regarding B6, the Kd came to 0.00039 µM.

The target of the next assay is T1, FcγRIA (CD64). Put plainly: SPR.
Regarding B7, the Kd was 0.000222 µM.

Regarding B8, the Kd was found to be 0.103 µM.

In the case of B9, the Kd came to 0.0687 µM.

As to B10, the Kd is 0.000253 µM.

For B11, the Kd stood at 0.000285 µM.

B12 displayed a Kd of 0.000479 µM.

B13 had a Kd of 0.147 µM.

Molecule B14 displayed a Kd of 0.000259 µM.

The target of a further assay is T2, CD32aH (FcγRIIaH). Put plainly: SPR. This is another data set of the same source.
As for B1, the Kd amounted to 0.5 µM.

In turn, B2 registered a Kd of 36.6 µM.

On to B3, for which the Kd is over 12 µM.

B4 yielded a Kd of over 12 µM.

Turning to B5, the Kd turned out to be 7.17 µM.

For another assay, the target named is T3, CD32bF (FcγRIIbF). Description: SPR. The source holds these as a separate data set.
Regarding B1, the Kd was determined as 0.91 µM.

Molecule B2 had a Kd of 18 µM.

Consider B3, for which the Kd is over 12 µM.

In turn, B4 came in with a Kd of over 12 µM.

In turn, B5 had a Kd of 4.9 µM.

A further assay has as its target T4, CD16aF (FcγRIIIaF). Put plainly: SPR. The source holds these as a separate data set.
As for B1, the Kd was found to be 1.7 µM.

In the case of B2, the Kd was over 5 µM.

Turning to B3, the Kd is over 5 µM.

The molecule B4 registered a Kd of over 5 µM.

As to B5, the Kd came to 8.11 µM.

For a further assay, the target named is T5, CD16aV (FcγRIIIaV). Description: SPR. The source holds these as a separate data set.
B1 had a Kd of 0.32 µM.

On to B2, for which the Kd was 18.7 µM.

With B3, the Kd was over 5 µM.

On to B4, for which the Kd was over 5 µM.

In turn, B5 showed a Kd of 6.04 µM.
